Molecular target: T1, bovine serum albumin (bovine, UniProt P02769 25-607)
T1 construct: Control coating; also called BSA
Assay: phage ELISA on coated BSA, HRP anti-phage detection
Procedure: Recombinant phages were isolated by precipitation with poly(ethylene glycol) (PEG 8000) and samples of Phtlec and PhTN3 phage preparations as well as a sample of helper phage were subjected to an ELISA-type sandwich assay, in which wells of a Maxisorb (Nunc) multiwell plate were first incubated with anti-human tetranectin or bovine serum albumin (BSA) and blocked in skimmed milk or skimmed milk/EDTA. Briefly, cultures of pPhtlec and pPhTN3 phagemid transformed TG1 cells were grown at 37° C. in 2×TY-medium supplemented with 2% glucose and 100 mg/L ampicillin until A₆₀₀ reached 0.5. By then the helper phage, M13K07, was added to a concentration of 5×10⁹ pfu/mL. The cultures were incubated at 37° C. for another 30 min before cells were harvested by centrifugation and resuspended in the same culture volume of 2×TY medium supplemented with 50 mg/L kanamycin and 100 mg/L ampicillin and transferred to a fresh set of flasks and grown for 16 hours at 25° C. Cells were removed by centrifugation and the phages precipitated from 20 mL culture supernatant by the addition of 6 mL of ice cold 20% PEG 8000, 2.5 M NaCl. After mixing the solution was left on ice for one hour and centrifuged at 4° C. to isolate the precipitated phages. […] Phages in the wells were detected after incubation with HRP-conjugated anti-phage conjugate (Amersham Pharmacia, code no. 27-9421-01) followed by further washing.

T1 sequence (P02769 25-607 limits assumed): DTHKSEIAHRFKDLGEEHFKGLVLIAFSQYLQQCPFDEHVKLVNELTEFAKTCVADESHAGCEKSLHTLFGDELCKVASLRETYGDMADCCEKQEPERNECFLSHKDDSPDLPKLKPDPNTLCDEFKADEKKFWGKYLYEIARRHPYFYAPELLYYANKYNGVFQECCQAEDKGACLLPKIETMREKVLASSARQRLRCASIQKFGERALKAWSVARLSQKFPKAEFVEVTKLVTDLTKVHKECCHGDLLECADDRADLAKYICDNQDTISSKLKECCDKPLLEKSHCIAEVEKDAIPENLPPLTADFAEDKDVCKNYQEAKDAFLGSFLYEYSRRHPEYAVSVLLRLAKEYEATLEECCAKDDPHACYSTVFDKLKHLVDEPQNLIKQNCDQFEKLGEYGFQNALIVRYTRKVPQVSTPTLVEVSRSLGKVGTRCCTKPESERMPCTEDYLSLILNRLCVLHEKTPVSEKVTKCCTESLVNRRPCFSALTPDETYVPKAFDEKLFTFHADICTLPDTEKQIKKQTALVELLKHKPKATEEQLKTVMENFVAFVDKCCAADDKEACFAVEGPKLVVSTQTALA

B1: PhTN3 phage (PhTN3-gene III fusion protein displayed on recombinant phage) (other)
chain: PAMAALQTVCLKGTKVHMKCFLAFTQTKTFHEASEDCISRGGTLSTPQTGSENDALYEYLRQSVGNEAEIWLGLNDMAAEGTWVDMTGARIAYKNWETEITAQPDGGKTENCAVLSGAANGKWFDKRCRDQLPYICQFGIVA
notes: Tested as whole phage particles rescued with M13KO7; claim 18 says hTN3 is position 5 Ala to 141 Val of it; also called human PhTN3 phages; PhCTLD; not shown: phage gene III protein fused after the PhTN3 part, as encoded by phagemid pCANTAB 5E; limits and any tag in between not
B1: no binding.

B2: Phtlec phage (Phtlec-gene III fusion protein displayed on recombinant phage) (other)
chain: PAMAEPPTQKPKKIVNAKKDVVNTKMFEELKSRLDTLAQEVALLKEQQALQTVVLKGTKVHMKVFLAFTQTKTFHEASEDCISRGGTLSTPQTGSENDALYEYLRQSVGNEAEIWLGLNDMAAEGTWVDMTGTRIAYKNWETEITAQPDGGKTENCAVLSGAANGKWFDKRCRDQLPYICQFGIVA
notes: Tested as whole phage particles rescued with M13KO7; claim 15 says htlec itself is position 5 Glu to 185 Val of it; also called human Phtlec phages; Phlec; not shown: phage gene III protein fused after the Phtlec part, as encoded by phagemid pCANTAB 5E; limits and any tag in between not
B2: no binding.

Reference: US20040132094A1 (ANAPHORE, published 2004)
